In patent publication US20210009713A1 (MIDWESTERN UNIVERSITY, published 2021):
Like-named read-outs stand apart in the source and are kept apart here.

T1: aspartyl (asparaginyl) β-hydroxylase (ASPH) (UniProt Q12797 75-758, limits assumed)
T1 construct: also called ASPH protein
T1 sequence (looked up): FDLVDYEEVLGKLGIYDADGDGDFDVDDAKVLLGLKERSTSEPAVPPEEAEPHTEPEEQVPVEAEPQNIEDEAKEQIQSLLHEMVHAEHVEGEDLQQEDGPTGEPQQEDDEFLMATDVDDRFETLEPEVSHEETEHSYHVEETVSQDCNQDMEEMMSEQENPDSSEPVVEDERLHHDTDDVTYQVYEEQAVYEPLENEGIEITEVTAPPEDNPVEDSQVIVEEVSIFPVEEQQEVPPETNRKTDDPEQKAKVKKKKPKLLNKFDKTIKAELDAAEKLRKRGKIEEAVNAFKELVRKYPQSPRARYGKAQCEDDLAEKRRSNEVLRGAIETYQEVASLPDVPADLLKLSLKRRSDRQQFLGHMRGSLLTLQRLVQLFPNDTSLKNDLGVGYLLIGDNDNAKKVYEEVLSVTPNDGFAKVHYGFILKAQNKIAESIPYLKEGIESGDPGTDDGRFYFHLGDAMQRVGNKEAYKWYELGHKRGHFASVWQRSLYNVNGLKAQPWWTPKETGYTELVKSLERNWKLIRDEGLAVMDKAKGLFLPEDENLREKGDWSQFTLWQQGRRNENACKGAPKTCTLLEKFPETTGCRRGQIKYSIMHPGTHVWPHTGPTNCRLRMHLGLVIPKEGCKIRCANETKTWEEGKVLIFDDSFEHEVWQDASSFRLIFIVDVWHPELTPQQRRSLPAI


Biological target: T1, aspartyl (asparaginyl) β-hydroxylase …
Test: SPR, antibody captured via Protein G, ASPH as analyte
Experimental: The interaction between ASPH and a set of 6 antibodies were characterized by Essai Sciences LLC (Stillwater, Okla.) on a SensiQ Pioneer SPR Platform. The COOH2 sensor chip, which contains a planar dextran surface, was used for target immobilization. The buffer system was 10 mM HEPES, pH 7.4, 150 mM NaCl, and 0.01% Tween-20.
All channels of a COOH2 sensor chip were activated with a five-minute injection of 40 mM EDC and 10 mM NHS. Protein G was then injected across channels 1 and 2. 1 M ethanolamine, pH 8.0 was then injected across all three channels. Approximately 1000 response units of Protein G were captured on both channels 1 and 2 (FIG. 18). For each antibody-ASPH interaction, the antibody was injected on channel 1, leaving channels 2 and 3 as a Protein G reference and empty channel reference, respectively. After antibody capture, ASPH was injected at a single concentration. Following injection of ASPH, all three channels were injected with 10 mM NaOH for one minute to regenerate the Protein G surface. This was done twice for each antibody, at each tested concentration of ASPH.

Kd [nM] | koff [s⁻¹] | kon [M⁻¹ s⁻¹] | Kd (record 2) [nM] | Binder
61.9 | 0.00185 | 29800 | 60 | 9H2/9K3 (antibody, part only; not given: kappa light chain, V domains shown, part only) VH: QSLEESGGDLVKPGASLTLTCKASGFDFISNAMCWVRQAPGKGPEWIACIDNGDGSTDYATWAKGRFTISKTSSTTVTLQMTSLTAADTATYFCTRNFNLWGQGTLTVSSGQPKAPSVFPLAP
144 | 0.00243 | 16800 |  | 5H4/5K3 (antibody, V domains shown, The entries are translated variable regions that still carry the leader and the start of the constant region (GQPK... / GDPV...)) VH: QSLEESGGDLVKPGASLTLTCKASGFDFSSNAMCWVRQAPGKGPEWIACIDNGDGSTDYATWAKGRFTISKTSSTTVTLQMTSLTAADTATYFCTRNFNLWGQGTLVTVSS VL: AQVLTQTASSVSAAVGGTVTISCQSSQSVYDNNRLAWFQQKPGQPPKLLIYETSKLASGVPLRFKGSGSGTQFTLTISDLECDDAATYYCLGSYSGYIYTFGGGTEVVVKG
